Laboratory results reported in publication PMC5394796 (Journal of molecular biology, 2016).

Target: the molecule itself
Experiment: disulfide-linked dimer fraction in lipid vesicles by SDS-PAGE

Protein: SSPGTPASPCSLSGIIIGVTVAAVVLIVAVFVSKSLLWKK [DR5-L TM peptide (synthetic 40-residue DR5-L transmembrane domain)]
- stoichiometry N: 2
